The target in data set [1] is T1, GST-MEIOB construct A (Mus musculus, UniProt Q9D513 136-307).
T1 sequence: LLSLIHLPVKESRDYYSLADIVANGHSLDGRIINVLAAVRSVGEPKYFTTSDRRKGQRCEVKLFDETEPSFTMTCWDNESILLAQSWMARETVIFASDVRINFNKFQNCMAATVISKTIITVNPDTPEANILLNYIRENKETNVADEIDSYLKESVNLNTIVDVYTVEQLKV
In words: EMSA. In general terms: A gel shift assay detects complexes by their altered migration in electrophoresis.

Data set [2] addresses T1, GST-MEIOB construct A. The experiment in a line: EMSA. This is another data set of the same source.

Results on four molecules are retold here after PMC3891831.

The term Kd denotes a measure of binding affinity in units of concentration.

B1: d36GT (ssDNA)
DNA: GTGTGTGTGTGTGTGTGTGTGTGTGTGTGTGTGTGT
On to B1, for which, in the data set with GST-MEIOB construct A [1], binding was put at a Kd of 400 nM.

B2: dsDNA 36 bp (dsDNA)
DNA 1: B1 DNA
DNA 2: ACACACACACACACACACACACACACACACACACAC
Consider B2, for which the binding result with GST-MEIOB construct A [2] is on record as “no binding”.

B3: 5' flap (30 nt) (dsDNA)
DNA 1: GTGTGTGTGTGTGTGTGTGTGTGTGTGTGTGGACATCTTTGCCCACCTGCAGGTTCACCC
DNA 2: GGGTGAACCTGCAGGTGGGCAAAGATGTCC
B3: in the data set with GST-MEIOB construct A [2], the binding result is listed as “binds”.

B4: 3' flap (30 nt) (dsDNA)
DNA 1: CGATAGTCGGATCCTCTAGACAGCTCCATGGTGTGTGTGTGTGTGTGTGTGTGTGTGTGT
DNA 2: CATGGAGCTGTCTAGAGGATCCGACTATCG
With B4, the binding result with GST-MEIOB construct A [2] was “binds”.
